For orientation: EC50 means the concentration giving half of the maximal effect. By Kd is commonly meant a measure of binding affinity in units of concentration. Low readings indicate higher affinity, high ones lower affinity.

Numbering of substitutions follows the chain as printed.

From US20240059789A1 (Janssen / Centocor, published 2024) come the findings set out here.

Assay [1] addresses T1, Human PSMA on prostate cancer cell lines (C4-2B, 22RV1) (human, UniProt Q04609 1-750).
T1 construct: Endogenous PSMA of the human cell lines; also called PSMA+ cells; PSMA-expressing cell lines
The assay is described as follows: flow cytometry on 22RV1 cells. On the procedure: (§1) Selected anti-PSMA antibodies were evaluated for binding to commercial prostate cancer cell lines. C4-2B cells were originally developed at MD Anderson and are derived from LNCaP FGC grown in vivo and metastasize to bone marrow (Thalmann, et al 1994, Cancer Research 54, 2577-81). 22Rv1 cells are a human prostate carcinoma epithelial cell line derived from a xenograft that was serially propagated in mice after castration-induced regression and relapse of the parental, androgen-dependent CWR22 xenograft. 22RV1 and C4-2B cells were plated at 50,000 cells per well in 50 μl of assay medium (RPMI, 10% HI FBS) in V bottom plates. Serial dilutions of antibodies were prepared in assay medium with 50 μl of antibody dilutions added to the plates containing cells. The plates were incubated for 60 min at 37° C. at which time 100 μl of staining buffer (Becton Dickinson Cat #554657) was added to all wells of each plate. The plates were centrifuged at 300×G for 5 minutes and the medium was removed from the wells. 200 μl of staining buffer was added to all wells of each plate. The plates were centrifuged at 300×G for 5 minutes and the medium was removed from the wells. 50 μl of 2 μg/ml AlexaFluor647-labeled goat anti-human Fc was added to all wells of the plates and the plates were incubated for 30 minutes at 4° C. 150 μl of staining buffer was added to all wells of each plate. The plates were centrifuged at 300×G for 5 minutes and the medium was removed from the wells.
For orientation: In flow cytometry, cells or beads pass a laser one at a time.

The target in assay [2] is T2, Human PSMA ECD (Lys44-Ala750), N-6xHis (PSMW39) (human, UniProt Q04609 44-750).
T2 construct: also called PSMW39.002; hu PSMA
The assay is described as follows: SPR Biacore 8K, mAb captured by anti-Fc, antigen in solution. On the procedure: (§2) The association and dissociation were monitored for 3 and 15 minutes, respectively, using a flow rate of 50 μL/min. Raw binding data was referenced by subtracting the analyte binding signals from blanks and analyzed using a 1:1 Langmuir binding model using the Biacore Insight evaluation software to obtain the kinetics, which were used to calculate the binding affinity. The anti-PSMA were captured using an anti-human Fc antibody and the antigens were injected in solution.
In general terms: SPR reads the build-up and loss of mass on a sensor chip optically.

The target of assay [3] is T3, Avi-6xHis-GS-cyno PSMA ECD (PSMW1) (Macaca fascicularis, UniProt Q04609 48-750 (human entry)).
T3 construct: also called PSMW1.009; cy PSMA
T3 chain: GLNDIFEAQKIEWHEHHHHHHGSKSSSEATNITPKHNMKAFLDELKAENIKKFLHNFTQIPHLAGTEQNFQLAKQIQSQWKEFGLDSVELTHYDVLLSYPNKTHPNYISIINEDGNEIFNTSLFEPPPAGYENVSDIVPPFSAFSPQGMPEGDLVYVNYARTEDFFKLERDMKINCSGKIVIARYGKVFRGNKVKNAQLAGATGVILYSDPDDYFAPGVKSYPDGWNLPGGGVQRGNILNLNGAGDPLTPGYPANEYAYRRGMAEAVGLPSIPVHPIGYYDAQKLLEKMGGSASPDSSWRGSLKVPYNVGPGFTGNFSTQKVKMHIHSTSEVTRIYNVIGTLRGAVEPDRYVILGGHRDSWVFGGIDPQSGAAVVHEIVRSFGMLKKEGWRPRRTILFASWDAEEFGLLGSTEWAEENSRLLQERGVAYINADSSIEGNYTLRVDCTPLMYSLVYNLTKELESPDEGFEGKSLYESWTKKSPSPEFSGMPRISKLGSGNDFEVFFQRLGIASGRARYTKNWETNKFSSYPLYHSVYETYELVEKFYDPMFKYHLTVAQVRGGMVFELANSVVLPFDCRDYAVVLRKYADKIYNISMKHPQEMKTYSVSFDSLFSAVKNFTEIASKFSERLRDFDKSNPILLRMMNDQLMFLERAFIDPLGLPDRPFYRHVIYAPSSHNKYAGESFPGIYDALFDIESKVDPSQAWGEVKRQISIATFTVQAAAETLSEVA
Described as above. On the procedure: as §2

Assay [4] addresses T1, Human PSMA on prostate cancer cell …. Description: flow cytometry on C4-2B cells. Here is the method:
as §1

The target in assay [5] is Human CD3 on T cells / Jurkat cells (human, UniProt P07766 23-207). Description: cell-based or functional assay.
For assay [6], the target named is T1, Human PSMA on prostate cancer cell …. Description: cell-based or functional assay.

Sequence of Human CD3 on T cells / Jurkat cells (P07766 23-207 limits assumed): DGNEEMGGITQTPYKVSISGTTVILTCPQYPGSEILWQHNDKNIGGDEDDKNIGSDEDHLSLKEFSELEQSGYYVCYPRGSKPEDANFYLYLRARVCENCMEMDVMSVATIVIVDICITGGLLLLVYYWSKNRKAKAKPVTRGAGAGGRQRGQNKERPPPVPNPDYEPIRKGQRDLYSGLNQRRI
T2 sequence (Q04609 other isoform, or with tags, fused parts or gaps): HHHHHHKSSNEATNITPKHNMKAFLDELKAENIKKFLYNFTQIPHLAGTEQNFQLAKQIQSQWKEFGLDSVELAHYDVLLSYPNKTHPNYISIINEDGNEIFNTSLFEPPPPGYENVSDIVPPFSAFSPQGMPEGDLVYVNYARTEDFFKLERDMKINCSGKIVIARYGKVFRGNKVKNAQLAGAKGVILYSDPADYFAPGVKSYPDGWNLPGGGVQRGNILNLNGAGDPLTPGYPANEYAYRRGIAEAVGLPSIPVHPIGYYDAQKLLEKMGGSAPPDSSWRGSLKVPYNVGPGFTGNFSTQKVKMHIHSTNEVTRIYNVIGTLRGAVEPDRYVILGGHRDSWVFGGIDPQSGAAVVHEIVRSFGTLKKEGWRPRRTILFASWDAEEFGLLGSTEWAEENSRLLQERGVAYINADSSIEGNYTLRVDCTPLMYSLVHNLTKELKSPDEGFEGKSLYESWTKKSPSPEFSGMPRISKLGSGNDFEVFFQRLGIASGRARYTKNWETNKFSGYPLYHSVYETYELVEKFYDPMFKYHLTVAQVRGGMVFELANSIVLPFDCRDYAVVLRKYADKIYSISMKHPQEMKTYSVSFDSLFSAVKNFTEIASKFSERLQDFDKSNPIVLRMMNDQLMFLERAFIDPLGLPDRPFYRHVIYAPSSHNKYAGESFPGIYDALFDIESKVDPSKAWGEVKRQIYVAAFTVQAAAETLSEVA
T1 sequence (Q04609 whole entry): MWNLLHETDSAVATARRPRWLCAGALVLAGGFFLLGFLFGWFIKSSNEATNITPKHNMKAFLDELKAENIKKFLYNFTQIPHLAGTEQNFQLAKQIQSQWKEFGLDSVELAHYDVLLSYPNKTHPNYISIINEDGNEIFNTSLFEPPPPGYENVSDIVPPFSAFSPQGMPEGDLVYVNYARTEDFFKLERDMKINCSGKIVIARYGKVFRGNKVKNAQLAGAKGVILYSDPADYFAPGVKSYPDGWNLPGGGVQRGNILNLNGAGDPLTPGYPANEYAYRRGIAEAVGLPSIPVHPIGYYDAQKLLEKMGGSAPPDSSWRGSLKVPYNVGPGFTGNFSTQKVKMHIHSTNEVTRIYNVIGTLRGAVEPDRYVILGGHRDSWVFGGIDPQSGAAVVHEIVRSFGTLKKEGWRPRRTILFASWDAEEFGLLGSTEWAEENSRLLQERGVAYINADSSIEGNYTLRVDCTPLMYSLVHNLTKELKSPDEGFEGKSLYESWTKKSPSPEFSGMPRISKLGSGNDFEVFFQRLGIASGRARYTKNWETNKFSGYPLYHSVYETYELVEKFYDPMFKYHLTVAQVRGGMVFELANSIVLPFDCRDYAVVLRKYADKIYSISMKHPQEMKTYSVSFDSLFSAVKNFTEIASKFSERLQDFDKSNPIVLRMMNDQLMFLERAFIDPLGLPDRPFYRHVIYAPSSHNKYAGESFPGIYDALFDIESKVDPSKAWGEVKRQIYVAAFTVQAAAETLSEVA

B1: PSMB895 (antibody, human IgG1, lambda, L234A L235A, V domains shown)
VH: EVQLVESGGGLVQPGGSLRLSCAASGFTFSSYAMSWVRQAPGKGLEWVSAISGGIGSTYYADSVKGRFTISRDNSKNTLWLQMNSLRAEDTAVYYCAKDGVGATPYYFDYWGQGTLVTVSS
VL: QSVLTQPPSVSAAPGQKVTISCSGSSSNIGNNYVSWYQQLPGTAPKLLIYDNNKRPSGIPDRFSGSKSGTSATLGITGLQTGDEADYYCGTWDSSLSAYVFGTGTKVTVLG
As to B1, the concentration for a half-maximal effect (EC50) in assay [1] is 1.71 nM; in assay [4] it was 5.09 nM. Besides, the Kd in assay [2] was 0.704 nM; in assay [3] it was 2.83 nM.

B2: PSMB899 (antibody, human IgG1, lambda, L234A L235A, V domains shown)
VH: B1 VH with A23T, T28I, I55Y, S57A, T58P, S63T, W80Y, Y110D, T115I
VL: B1 VL with Y50F
On to B2, for which the half-maximal effective concentration (EC50) in assay [1] came to 1.02 nM; in assay [4], 5.58 nM. Further, the Kd in assay [2] is 0.132 nM; in assay [3] it was 1.47 nM.

B3: PSMB897 (antibody, human IgG1, lambda, L234A L235A, V domains shown)
VH: B1 VH with I55S, W80Y, T91S
VL: B1 VL
Regarding B3, the EC50 in assay [1] was 2.26 nM; in assay [4] it was 4.76 nM. For the same molecule, the Kd worked out at 1.28 nM in assay [2] and 3.93 nM in assay [3].

B4: PSMB898 (antibody, human IgG1, lambda, L234A L235A, V domains shown)
VH: B1 VH with I55S, W80Y, T91S
VL: B1 VL with N31I, Y99V, T103G, V107L
For B4, the EC50 in assay [1] was found to be 2.07 nM; in assay [4] it was 6.53 nM. The Kd in assay [2] turned out to be 0.333 nM; in assay [3], 1.19 nM.

B5: PSMB890 (antibody, human IgG1, lambda, L234A L235A, V domains shown)
VH: EVQLVESGGGLVKPGGSLRLSCAASGFTFSRYNMNWVRQAPGKGLEWVSSINSNSRYIYYADSVKGRFTISRDSAKNSLYLQMNSLRAEDTAVYYCAKTMGDYYYYYGMDVWGQGTTVTVSS
VL: SSELTQPPSVSGAPGQRVTISCAGSLSNIGAGYDVHWYQQLPGTAPKLLIYGNINRLSGVPERFSGSKSGTSASLAITGLQAEDGADYYCQSYDSSLSSYVFGTGTKVTVLG
Regarding B5, the 50% effective concentration (EC50) in assay [1] came to 1.71 nM; in assay [4], 0.941 nM.

B6: PS3B925 (bispecific antibody, human IgG1, kappa, lambda, L234A L235A)
heavy 1: EVQLVESGGGLVKPGGSLRLSCAASGFTFSRYNMNWVRQAPGKGLEWVSSISTSSNYIYYADSVKGRFTFSRDNAKNSLDLQMSGLRAEDTAIYYCTRGWGPFDYWGQGTLVTVSSASTKGPSVFPLAPSSKSTSGGTAALGCLVKDYFPEPVTVSWNSGALTSGVHTFPAVLQSSGLYSLSSVVTVPSSSLGTQTYICNVNHKPSNTKVDKKVEPKSCDKTHTCPPCPAPEAAGGPSVFLFPPKPKDTLMISRTPEVTCVVVSVSHEDPEVKFNWYVDGVEVHNAKTKPREEQYNSTYRVVSVLTVLHQDWLNGKEYKCKVSNKALPAPIEKTISKAKGQPREPQVYTLPPSREEMTKNQVSLTCLVKGFYPSDIAVEWESNGQPENNYKTTPPVLDSDGSFLLYSKLTVDKSRWQQGNVFSCSVMHEALHNHYTQKSLSLSP
light 1: DIQMTQSPSSLSASVGDRVTITCRARQSIGTAIHWYQQKPGKAPKLLIKYASESISGVPSRFSGSGSGTDFTLTISSLQPEDFATYYCQQSGSWPYTFGQGTKLEIKRTVAAPSVFIFPPSDEQLKSGTASVVCLLNNFYPREAKVQWKVDNALQSGNSQESVTEQDSKDSTYSLSSTLTLSKADYEKHKVYACEVTHQGLSSPVTKSFNRGEC
heavy 2: EVQLVESGGGLVQPGGSLRLSCTASGFIFSSYAMSWVRQAPGKGLEWVSAISGGYGAPYYADTVKGRFTISRDNSKNTLYLQMNSLRAEDTAVYYCAKDGVGATPYYFDDWGQGILVTVSSASTKGPSVFPLAPSSKSTSGGTAALGCLVKDYFPEPVTVSWNSGALTSGVHTFPAVLQSSGLYSLSSVVTVPSSSLGTQTYICNVNHKPSNTKVDKKVEPKSCDKTHTCPPCPAPEAAGGPSVFLFPPKPKDTLMISRTPEVTCVVVSVSHEDPEVKFNWYVDGVEVHNAKTKPREEQYNSTYRVVSVLTVLHQDWLNGKEYKCKVSNKALPAPIEKTISKAKGQPREPQVYTLPPSREEMTKNQVSLTCLVKGFYPSDIAVEWESNGQPENNYKTTPPVLDSDGSFFLYSRLTVDKSRWQQGNVFSCSVMHEALHNHYTQKSLSLSPG
light 2: QSVLTQPPSVSAAPGQKVTISCSGSSSNIGNNYVSWYQQLPGTAPKLLIFDNNKRPSGIPDRFSGSKSGTSATLGITGLQTGDEADYYCGTWDSSLSAYVFGTGTKVTVLGQPKAAPSVTLFPPSSEELQANKATLVCLISDFYPGAVTVAWKADSSPVKAGVETTTPSKQSNNKYAASSYLSLTPEQWKSHRSYSCQVTHEGSTVEKTVAPTECS
In the case of B6, the “T cell activation EC50 [M] (CD25+ T cells, C4-2B co-culture, 72 h)” value (“T cell activation EC50 [M]” below) in assay [5] was determined as 4.59e-12 M. For the same molecule, in assay [6], the “Tumor killing EC50 [M] (C4-2B + PAN-T cells, 72 h, flow cytometry)” value (shortened to “Tumor killing EC50 [M]”) stood at 7.98e-12 M.

B7: PS3B935 (bispecific antibody, human IgG1, kappa, lambda, L234A L235A)
heavy 1: B6 heavy 1
light 1: B6 light 1
heavy 2: B6 heavy 2 with T23A, I28T, Y55S, A57S, P58T, T63S, T91S, D110Y, I115T
light 2: B6 light 2 with N31I, F50Y, Y99V, T103G, V107L
As for B7, in assay [5], the “T cell activation EC50 [M]” value worked out at 6.72e-12 M. In addition, the “Tumor killing EC50 [M]” value in assay [6] stood at 7.16e-12 M.

B8: PS3B934 (bispecific antibody, human IgG1, kappa, lambda, L234A L235A)
heavy 1: B6 heavy 1
light 1: B6 light 1
heavy 2: B6 heavy 2 with T23A, I28T, Y55I, A57S, P58T, T63S, Y80W, D110Y, I115T
light 2: B6 light 2 with N31I, F50Y, Y99V, T103G, V107L
On to B8, for which the “T cell activation EC50 [M]” value in assay [5] turned out to be 4.81e-12 M. Also, the “Tumor killing EC50 [M]” value in assay [6] was 7.24e-12 M.

B9: PS3B933 (bispecific antibody, human IgG1, kappa, lambda, L234A L235A)
heavy 1: B6 heavy 1
light 1: B6 light 1
heavy 2: B6 heavy 2 with T23A, I28T, Y55S, A57S, P58T, T63S, T91S, D110Y, I115T
light 2: B6 light 2 with F50Y
For the molecule B9, the “T cell activation EC50 [M]” value in assay [5] amounted to 6.01e-11 M. The “Tumor killing EC50 [M]” value in assay [6] amounted to 4.76e-11 M.

B10: PS3B913 (bispecific antibody, human IgG1, lambda, L234A L235A)
heavy 1: QVQLQQSGPRLVRPSQTLSLTCAISGDSVFNNNAAWSWIRQSPSRGLEWLGRTYYRSKWLYDYAVSVKSRITVNPDTSRNQFTLQLNSVTPEDTALYYCARGYSSSFDYWGQGTLVTVSSASTKGPSVFPLAPSSKSTSGGTAALGCLVKDYFPEPVTVSWNSGALTSGVHTFPAVLQSSGLYSLSSVVTVPSSSLGTQTYICNVNHKPSNTKVDKKVEPKSCDKTHTCPPCPAPEAAGGPSVFLFPPKPKDTLMISRTPEVTCVVVSVSHEDPEVKFNWYVDGVEVHNAKTKPREEQYNSTYRVVSVLTVLHQDWLNGKEYKCKVSNKALPAPIEKTISKAKGQPREPQVYTLPPSREEMTKNQVSLTCLVKGFYPSDIAVEWESNGQPENNYKTTPPVLDSDGSFLLYSKLTVDKSRWQQGNVFSCSVMHEALHNHYTQKSLSLSPG
light 1: QSALTQPASVSGSPGQSITISCTGTSSNIGTYKFVSWYQQHPDKAPKVLLYEVSKRPSGVSSRFSGSKSGNTASLTISGLQAEDQADYHCVSYAGSGTLLFGGGTKLTVLGQPKAAPSVTLFPPSSEELQANKATLVCLISDFYPGAVTVAWKADSSPVKAGVETTTPSKQSNNKYAASSYLSLTPEQWKSHRSYSCQVTHEGSTVEKTVAPTECS
heavy 2: not shown
light 2: not shown
On to B10, for which the “T cell activation EC50 [M]” value in assay [5] is 1.55e-10 M. The “Tumor killing EC50 [M]” value in assay [6] is 3.11e-10 M.

B11: PS3B915 (bispecific antibody, human IgG1, lambda, L234A L235A)
heavy 1: B10 heavy 1
light 1: B10 light 1
heavy 2: not shown
light 2: not shown
On to B11, for which, in assay [5], the “T cell activation EC50 [M]” value came to 1e-08 M. In addition, the “Tumor killing EC50 [M]” value in assay [6] turned out to be 1e-08 M.
